Data on two molecules can be found in patent US20240043505A1.

Holding throughout (details): remark: other sources report otherwise
The target of experiment [1] is receptor-binding domain (RBD) of the SARS-CoV-2 spike (S) glycoprotein (SARS-CoV-2), P0DTC2.
Experiment [2] concerns the target T1, SARS-CoV-2 spike receptor-binding domain (RBD) (SARS-CoV-2), P0DTC2. As to the kind of experiment: indirect ELISA, RBD coated on plate, 4PL fit. For orientation: In an ELISA, binding on a coated surface is turned into a signal by an enzyme label.
For experiment [3], the target named is T1, SARS-CoV-2 spike receptor-binding …. In words: SPR (Biacore 3000), RBD immobilised, Nb as analyte, 1:1 Langmuir fit.

Usually Kd stands for the free concentration of one partner at which half of the binding sites on the other are occupied at equilibrium, for simple one-to-one binding. A low value points to higher affinity. Broadly, the koff is the rate constant with which the complex falls apart. A lower koff goes with a long-lived complex. One may read the kon as the second-order rate constant of association. Low readings indicate slower complex formation, high ones faster complex formation.

B1: Nb21 (VHH)
VHH: QVQLVESGGGLVQAGGSLRLSCAVSGLGAHRVGWFRRAPGKEREFVAAIGANGGNTNYLDSVKGRFTISRDNAKNTIYLQMNSLKPQDTAVYYCAARDIETAEYTYWGQGTQVTVSS
Turning to B1, the Buried surface area in experiment [1] was found to be 850 Å^2. For the same molecule, the ELISA affinity in experiment [2] was found to be 0.3 nM. In experiment [3], this molecule yielded a Kd of less than 1 pM, a koff of less than 1e-06 s⁻¹ and a kon of 3.79e+06 M⁻¹ s⁻¹.

B2: Nb17 (VHH)
VHH: HVQLVESGGGLVQAGGSLRLSCAASGSIFSSNAMSWYRQAPGKQRELVASITSGGNADYADSVKGRFTISRDKNTVYPEMSSLKPADTAVYYCHAVGQEASAYAPRAYWGQGTQVTVSS
B2 yielded a Buried surface area in experiment [1] of 921 Å^2. The molecule also gave an ELISA affinity in experiment [2] of 0.45 nM.
